Article PMC10147923, “Pain-causing stinging nettle toxins target TMEM233 to modulate NaV1.7 function” (Nature Communications, 2023)
“And” between values parts separate entries of the source, which are not always exact repeats. Equal values may be shown once. Read-outs that look alike come from different tables or passages of the source.

How the values were obtained:
Assay type in all cases: cell-based
NaV1.7 [1] = target: T1, NaV1.7 (Homo sapiens, UniProt Q15858); details: Fig 6d
Experimental: Current-voltage (IV) curves were determined in HEK-NaV1.7 cells, in the absence and presence of TMEM233, from a series of step pulses (500 ms) ranging from −110 to +55 mV (5 mV increments, repetition interval 5 s) before and after incubation with ExTxA (1 μM) from a holding potential of −90 mV. Currents were converted to conductance (G) using G = I/(V − Vrev), with Vrev being the reversal potential, plotted against voltage and fitted with a Boltzmann equation to obtain GV (conductance-voltage) curves. Voltage dependence of steady-state fast inactivation was determined by a subsequent 10 ms pulse to −20 mV immediately following the 500 ms depolarization step detailed above to assess the available non-inactivated channels.

NaV1.7 [2] = target: T1, NaV1.7
Experimental: To determine recovery from fast inactivation, a 20 ms pulse to 0 mV from a holding potential of −90 mV was used to induce fast inactivation. A subsequent recovery period, ranging from 1 ms to 2216 ms in 50% increments at −90 mV, was followed by a last 20 ms test pulses to 0 mV to determine the time-dependence of recovery from fast inactivation. The proportion of available channels was determined by normalizing peak currents from the last to the first pulse. A two-phase exponential equation was fit to the normalized current, plotted as a function of time, to determine the time constants τ1 and τ2 of recovery from fast inactivation.

NaV1.7 [3] = target: T1, NaV1.7; assay: Effect of TMEM233 co-expression on ramp currents; details: Fig 6j
Experimental: The holding potential was −90 mV. After a 50 ms pulse to −100 mV, ramps from −100 mV to +20 mV at a rate of 0.2 and 1.0 mV/ms were applied before and after ExTxA (100 nM) addition.

NaV1.7 [4] = target: T1, NaV1.7; remark: listed apart in the source
Experimental: To determine the voltage dependence of slow inactivation, HEK293-NaV1.7 cells were held at −120 mV and peak current determined by an initial 20 ms pulse to 0 mV. Following a series of 15,000 ms step pulses ranging from −120 to 0 mV in 20 mV increments, a subsequent 50 ms test pulse to 0 mV, preceded by a 50 ms step to −120 mV to remove fast inactivation, was used to determine the remaining current. The proportion of slow-inactivated channels was determined by normalizing peak current from the test pulse to the initial depolarization. A Boltzmann equation was fit to the current data, plotted as a function of voltage, to determine the V50 as well as the minimum proportion of activatable channels.

TMEM233 = TMEM233 (Homo sapiens, UniProt B4DJY2); assay: Currents in Cos-1 cells transfected with TMEM233 only
Experimental: Whole-cell patch clamp experiments involving HEK293, COS-1, CHO, ND7/23, F11, SH-SY5Y and TE-671 cells were performed on a QPatch II automated electrophysiology platform (Sophion Bioscience, Ballerup, Denmark) as previously described. Cells at approximately 70–80% confluency were harvested from T75 flasks using TrypLE Express at 37 °C for 2–5 min and resuspended in DMEM with 25 mM HEPES (Sigma-Aldrich, NSW, Australia), 100 U/mL Penicillin-Streptomycin (Gibco) and 40 µg/mL trypsin inhibitor from Glycine max (soybean) (Sigma Aldrich) prior to recovery on a QStirrer (Sophion) for 30 min. 16-channel patch plates with a patch hole diameter of 1 μm and resistance of 2 ± 0.02 MΩ were used. Cell positioning and sealing parameters were as follows: positioning pressure −60 mbar, minimum seal resistance 0.1 GΩ, holding potential −100 mV, holding pressure −20 mbar. Whole-cell currents were filtered at 5 kHz and acquired at 25 kHz. Series resistance compensation was used and set to 70%.

T1 sequence (Q15858 whole entry): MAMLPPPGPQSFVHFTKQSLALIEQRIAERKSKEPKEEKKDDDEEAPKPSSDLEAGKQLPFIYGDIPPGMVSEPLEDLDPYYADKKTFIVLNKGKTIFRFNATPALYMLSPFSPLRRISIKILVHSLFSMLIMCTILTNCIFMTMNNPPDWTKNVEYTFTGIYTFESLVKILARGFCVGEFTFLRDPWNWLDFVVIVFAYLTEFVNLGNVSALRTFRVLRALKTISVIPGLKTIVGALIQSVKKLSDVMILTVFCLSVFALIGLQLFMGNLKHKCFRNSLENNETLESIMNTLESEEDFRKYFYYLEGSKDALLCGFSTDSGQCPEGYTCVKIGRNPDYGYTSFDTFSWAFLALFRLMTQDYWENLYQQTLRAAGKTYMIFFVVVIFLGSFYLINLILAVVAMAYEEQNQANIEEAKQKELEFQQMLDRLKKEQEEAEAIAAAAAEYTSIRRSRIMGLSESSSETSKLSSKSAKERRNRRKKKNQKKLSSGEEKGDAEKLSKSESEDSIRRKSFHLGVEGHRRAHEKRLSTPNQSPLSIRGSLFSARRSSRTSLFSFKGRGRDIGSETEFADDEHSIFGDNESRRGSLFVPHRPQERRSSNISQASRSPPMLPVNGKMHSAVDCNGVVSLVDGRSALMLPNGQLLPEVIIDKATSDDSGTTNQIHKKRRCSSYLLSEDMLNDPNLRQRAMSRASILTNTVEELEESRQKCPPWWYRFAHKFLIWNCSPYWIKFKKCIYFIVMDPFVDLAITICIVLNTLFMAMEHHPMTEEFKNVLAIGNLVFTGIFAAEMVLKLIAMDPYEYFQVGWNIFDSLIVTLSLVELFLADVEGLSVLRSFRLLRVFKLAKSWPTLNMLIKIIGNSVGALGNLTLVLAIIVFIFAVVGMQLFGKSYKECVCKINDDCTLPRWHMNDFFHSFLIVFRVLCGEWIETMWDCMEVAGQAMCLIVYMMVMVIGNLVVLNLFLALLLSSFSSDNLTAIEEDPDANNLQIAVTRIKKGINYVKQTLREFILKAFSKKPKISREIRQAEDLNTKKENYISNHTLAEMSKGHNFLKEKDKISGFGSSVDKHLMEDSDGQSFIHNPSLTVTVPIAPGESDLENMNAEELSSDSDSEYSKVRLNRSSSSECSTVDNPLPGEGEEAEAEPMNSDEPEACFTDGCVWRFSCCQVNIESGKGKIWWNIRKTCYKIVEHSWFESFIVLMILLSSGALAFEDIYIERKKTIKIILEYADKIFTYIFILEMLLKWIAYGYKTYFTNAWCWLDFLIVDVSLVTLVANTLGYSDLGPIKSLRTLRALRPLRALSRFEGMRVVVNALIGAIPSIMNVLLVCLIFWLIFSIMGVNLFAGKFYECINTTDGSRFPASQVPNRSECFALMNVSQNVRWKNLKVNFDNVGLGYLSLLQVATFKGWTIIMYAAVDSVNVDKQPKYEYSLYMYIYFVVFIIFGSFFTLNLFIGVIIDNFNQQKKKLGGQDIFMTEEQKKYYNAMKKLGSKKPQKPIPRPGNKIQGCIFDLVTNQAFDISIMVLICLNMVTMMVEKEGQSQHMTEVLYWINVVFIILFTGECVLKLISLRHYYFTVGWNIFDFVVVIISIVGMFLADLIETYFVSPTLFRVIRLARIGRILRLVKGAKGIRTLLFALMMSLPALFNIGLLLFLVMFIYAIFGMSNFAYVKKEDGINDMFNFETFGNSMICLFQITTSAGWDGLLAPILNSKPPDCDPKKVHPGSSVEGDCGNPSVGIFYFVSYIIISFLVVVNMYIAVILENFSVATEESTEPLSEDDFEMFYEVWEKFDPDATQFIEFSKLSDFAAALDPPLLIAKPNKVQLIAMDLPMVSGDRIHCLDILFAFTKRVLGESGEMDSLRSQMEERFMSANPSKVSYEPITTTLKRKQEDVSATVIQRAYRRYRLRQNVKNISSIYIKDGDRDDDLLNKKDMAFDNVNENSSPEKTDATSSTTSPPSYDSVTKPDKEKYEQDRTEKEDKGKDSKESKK
T1 sequence (Q07699 19-218, further chain): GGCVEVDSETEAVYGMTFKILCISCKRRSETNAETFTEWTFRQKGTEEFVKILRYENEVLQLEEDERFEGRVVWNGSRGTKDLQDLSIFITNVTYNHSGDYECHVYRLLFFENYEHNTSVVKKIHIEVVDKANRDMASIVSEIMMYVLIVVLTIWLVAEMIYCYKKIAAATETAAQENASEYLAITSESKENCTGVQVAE

B1: TMEM233 (protein)
chain: MSQYAPSPDFKRALDSSPEANTEDDKTEEDVPMPKNYLWLTIVSCFCPAYPINIVALVFSIMSLNSYNDGDYEGARRLGRNAKWVAIASIIIGLLIIGISCAVHFTRNA
V50 of Activation (NaV1.7 [1]; Nav1.7/β1/TMEM233, HEK, individual cells, one line each (n = 11)): -31.12 and -24.58 and -26.49 and -27.4 and -28.15 and -19.85 and -25.7 and -20.24 and -36.47 and -27.6 and -24.5
V50 of Activation, mean (NaV1.7 [1]; Nav1.7/β1/TMEM233, HEK, mean, n = 11): -26.55
V50 of Activation, difference between means (B - A) ± SEM (NaV1.7 [1]; Nav1.7/β1/TMEM233 minus Nav1.7/β1 (Mock), unpaired t test, P value 0.8489): -0.4462 ± 2.301
Tau (Fast) RFFI, individual values (NaV1.7 [2]): 7.679
Tau (Fast) RFFI, mean (NaV1.7 [2]; Fig 6i, NaV1.7/β1/TMEM233, mean of n = 18, NaV1.7/β1 (Mock) mean 6.695, n = 8): 9.635
Tau (Fast) RFFI, individual values (NaV1.7 [2]; Fig 6i, NaV1.7/β1/TMEM233, single replicates): 8.086 and 8.074 and 13.19 and 9.314 and 15.71 and 7.639 and 9.188 and 12.89 and 5.959 and 5.962 and 16.54 and 10.99 and 8.961 and 6.569
Tau (Fast) RFFI, difference between means (Mock - TMEM233) ± SEM (NaV1.7 [2]; Fig 6i, unpaired t test P = 0.0236, 95% CI -5.450 to -0.4305): -2.940 ± 1.216
Tau Fast, mean (NaV1.7 [2]; Fig 6m, co-expression with NaV1.7/β1, mean of n = 7, NaV1.7/β1 mean 6.051, n = 16): 10.53
Tau Fast, individual values (NaV1.7 [2]; Fig 6m, co-expression with NaV1.7/β1, single replicates): 9.314 and 15.71 and 7.639 and 8.588 and 10.41 and 9.188 and 12.89
Tau Fast, mean diff. NaV1.7/β1/TMEM233 vs. NaV1.7/β1 (NaV1.7 [2]; Fig 6m, Tukey's adjusted P 0.0002, 95% CI 2.091 to 6.876): 4.484
Tau Fast, mean diff. vs. NaV1.7/β1/TMEM233 35-109 (NaV1.7 [2]; Fig 6m, Tukey's adjusted P 0.0026, 95% CI 1.415 to 7.059): 4.237
Peak current ramp 1 mV/ms, mean (NaV1.7 [3]; NaV1.7-TMEM233, mean of n = 9, NaV1.7 + pcDNA3.1 mean -0.1808, n = 11, analysis title says (+ExTxA)): -0.1202
Peak current ramp 1 mV/ms, individual values (NaV1.7 [3]; NaV1.7-TMEM233, single replicates, analysis title says (+ExTxA)): -0.1309 and -0.159 and -0.09062 and -0.1816 and -0.1566 and -0.06849 and -0.0929 and -0.1073 and -0.09446
Peak current ramp 1 mV/ms, difference between means (TMEM233 - pcDNA3.1) ± SEM (NaV1.7 [3]; unpaired t test P = 0.0914 (ns), 95% CI -0.01079 to 0.1320): 0.06063 ± 0.03399
Bottom (Boltzmann sigmoidal, best-fit value) (NaV1.7 [4]): 0.2301
Slope (Boltzmann sigmoidal, best-fit value) (NaV1.7 [4]): -7.153
Top (Boltzmann sigmoidal, best-fit value) (NaV1.7 [4]): 1.031
V50 (Boltzmann sigmoidal, best-fit value) (NaV1.7 [4]): -65.56 mV
V50, mean (NaV1.7 [4]; Fig. 6g, NaV1.7/β1/TMEM233, mean of n = 13, NaV1.7/β1 (Mock) mean -59.66, n = 11): -65.18
V50, individual values (NaV1.7 [4]; Fig. 6g, NaV1.7/β1/TMEM233, single replicates): -60.38 and -71.19 and -68.09 and -76.79 and -71.43 and -68.52 and -59.19 and -60.32 and -58.12 and -54.99 and -67.1 and -64.07 and -67.16
V50, difference between means (TMEM233 - Mock) ± SEM (NaV1.7 [4]; Fig. 6g, unpaired t test P = 0.0108, 95% CI -9.637 to -1.412): -5.524 ± 1.983
Peak Current, difference between means (COS-1 TMEM233 - COS-1) ± SEM (TMEM233): 55.71 ± 37.05
Peak Current, individual values (TMEM233): -254.824 and -273.19 and -178.816 and -233.506 and -232.738 and -200.138
Peak Current, mean (TMEM233): -228.9
